# According to US20100041612A1 (published 2010):
# Ends that are not written are not given here.
# B1: GLP-1 (7-20) amide (peptide)
# peptide: HAEGTFTSDVSSYL-NH2
# B2: GLP-1 (7-20) carboxy-terminal tethered with biphenylalanine (peptide)
# peptide: HAEGTFTSDVSSYL-biphenylalanine
# modifications: not fully specified
# Experiments:
# [1] = target: hyperactive human GLP-1 receptor variant (human); assay: cell-based or functional assay
# [2] = target: wild-type human GLP-1 receptor (human, UniProt P43220 24-463); assay: cell-based or functional assay
Binder,"cAMP production (radioimmunoassay), EC50 [1]","cAMP production, fold potency increase against the same peptide at the wild type receptor [1]","cAMP production (radioimmunoassay), half maximal excitatory concentration (EC50) [2]","cAMP production, fold higher potency against GLP-1 (7-20) amide -bpa at the hyperactive receptor [1]","cAMP production (radioimmunoassay), EC50 [2]","cAMP production, fold potency increase against GLP-1 (7-20) amide without biphenylalanine [2]"
B1,24 µM,10 fold,240 µM,–,–,–
B2,2 µM,–,–,10 fold,11 µM,22 fold
